In the supplement of paper PMC9876800:

Tested on: peptide library, one residue held at a place counted from the S/T acceptor
Assay: relative phosphorylation of the sub-library (ratio to the mean residue at this position); higher = residue favoured
Settings: human
Outline: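 Purified recombinant kinases (human or orthologue constructs) were incubated in 384-well plates with biotinylated degenerate peptide sub-libraries, each fixing one residue at one position around a central Ser/Thr. Peptides were at 50 μM, with 50 μM ATP spiked with γ-32P-ATP, for 90 min under kinase-specific conditions. Spots on streptavidin membranes were phosphorimaged and quantified by densitometry. Relative sub-library phosphorylation is a ratio to the mean residue at that position.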

Chain of DCLK1, construct: aa351-689 (O15075 351-689, looked up): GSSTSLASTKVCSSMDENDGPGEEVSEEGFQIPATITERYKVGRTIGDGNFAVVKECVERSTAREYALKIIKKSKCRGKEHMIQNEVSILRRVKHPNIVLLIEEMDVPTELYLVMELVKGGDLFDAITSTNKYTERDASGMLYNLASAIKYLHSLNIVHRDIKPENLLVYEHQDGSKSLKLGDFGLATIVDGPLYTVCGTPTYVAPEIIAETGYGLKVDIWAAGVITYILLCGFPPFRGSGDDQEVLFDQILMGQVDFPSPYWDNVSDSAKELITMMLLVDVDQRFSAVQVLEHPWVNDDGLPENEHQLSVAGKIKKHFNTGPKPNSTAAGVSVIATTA
Chain of DYRK1B, construct: Full length (Q9Y463 whole entry, looked up): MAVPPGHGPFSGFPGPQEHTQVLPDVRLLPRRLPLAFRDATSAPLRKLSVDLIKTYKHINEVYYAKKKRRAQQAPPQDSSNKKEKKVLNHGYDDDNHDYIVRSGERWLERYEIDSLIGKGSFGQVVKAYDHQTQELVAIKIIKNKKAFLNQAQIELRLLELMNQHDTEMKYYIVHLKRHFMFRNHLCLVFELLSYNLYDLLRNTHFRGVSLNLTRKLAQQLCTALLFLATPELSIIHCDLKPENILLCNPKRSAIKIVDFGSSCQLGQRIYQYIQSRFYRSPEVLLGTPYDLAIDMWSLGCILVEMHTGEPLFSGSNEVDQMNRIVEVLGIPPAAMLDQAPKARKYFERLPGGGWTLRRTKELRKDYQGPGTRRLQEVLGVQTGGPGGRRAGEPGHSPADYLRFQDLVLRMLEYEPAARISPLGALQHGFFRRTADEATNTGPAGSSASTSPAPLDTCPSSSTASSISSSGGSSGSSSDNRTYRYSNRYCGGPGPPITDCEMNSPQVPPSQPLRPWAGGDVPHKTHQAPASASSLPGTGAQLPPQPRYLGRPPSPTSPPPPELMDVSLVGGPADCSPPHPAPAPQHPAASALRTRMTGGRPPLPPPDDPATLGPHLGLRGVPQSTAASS
Chain of CSNK1A1, construct: Full length (P48729 whole entry, looked up): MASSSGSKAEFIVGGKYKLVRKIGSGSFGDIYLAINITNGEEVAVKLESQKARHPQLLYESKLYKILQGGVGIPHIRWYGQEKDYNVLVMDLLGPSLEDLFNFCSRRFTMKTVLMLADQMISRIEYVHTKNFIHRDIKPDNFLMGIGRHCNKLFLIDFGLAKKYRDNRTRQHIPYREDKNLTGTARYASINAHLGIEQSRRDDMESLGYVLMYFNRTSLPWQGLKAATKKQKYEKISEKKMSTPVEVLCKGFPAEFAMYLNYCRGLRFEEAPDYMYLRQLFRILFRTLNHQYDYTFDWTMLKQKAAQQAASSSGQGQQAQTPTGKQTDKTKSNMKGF
Chain of CLK2, construct: aa137-498 (P49760 137-498, looked up): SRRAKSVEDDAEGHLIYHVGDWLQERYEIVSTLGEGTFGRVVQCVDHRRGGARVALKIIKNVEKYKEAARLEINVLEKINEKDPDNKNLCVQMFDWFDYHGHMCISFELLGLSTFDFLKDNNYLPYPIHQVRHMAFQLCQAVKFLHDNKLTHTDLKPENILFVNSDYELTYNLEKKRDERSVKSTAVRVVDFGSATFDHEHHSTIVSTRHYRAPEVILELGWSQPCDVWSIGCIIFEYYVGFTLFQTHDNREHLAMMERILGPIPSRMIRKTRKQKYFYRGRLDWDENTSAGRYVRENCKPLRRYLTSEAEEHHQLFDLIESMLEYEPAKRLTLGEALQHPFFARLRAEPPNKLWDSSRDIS

CLK2, construct: aa137-498 (from UniProt P49760)
relative phosphorylation
Settings	at +1	at +2	at +3	at +4	at -1	at -2	at -3	at -4	at -5
A fixed	0.537	1.38	0.558	0.879	1.16	1.94	0.571	1.2	1.14
D fixed	0.278	1.66	0.658	2.06	0.653	0.869	0.537	0.818	0.937
E fixed	1.31	2.38	0.614	2.16	0.846	1.79	0.471	0.964	0.865
F fixed	0.258	0.524	0.357	0.734	0.316	0.239	0.223	0.547	0.929
G fixed	0.82	1.31	0.908	0.989	1.78	1.51	0.615	1.42	1.23
H fixed	0.56	0.949	0.851	0.93	0.812	0.538	0.627	0.906	1.05
I fixed	0.388	0.352	0.246	0.491	0.194	0.159	0.176	0.441	0.412
K fixed	0.663	0.989	2.22	1.03	2.09	1.06	2.11	1.82	2.18
L fixed	0.433	0.565	0.396	0.645	0.416	0.266	0.209	0.485	0.478
M fixed	0.872	0.633	0.332	0.764	0.614	0.328	0.277	0.707	0.54
N fixed	0.464	0.968	0.95	1.18	1.07	0.522	0.473	0.897	1.05
P fixed	7.13	1.76	2.02	0.754	2.01	0.616	0.523	1.29	0.976
Q fixed	1.05	1.02	0.772	1.28	1.28	0.824	0.64	1.07	0.879
R fixed	0.767	1.08	5.17	1.12	2.29	5.66	8.88	2.84	2.51
V fixed	0.804	0.483	0.322	0.695	0.465	0.2	0.222	0.521	0.604
W fixed	0.296	0.468	0.305	0.626	0.467	0.219	0.219	0.491	0.607
Y fixed	0.367	0.468	0.314	0.668	0.543	0.266	0.23	0.582	0.614
pThr fixed	1.28	5.19	0.962	4.17	0.539	0.556	0.521	0.958	1
pTyr fixed	1.47	1.44	1.32	1.97	2.09	0.473	0.485	1.08	1.12

CSNK1A1, construct: Full length (from UniProt P48729)
relative phosphorylation
Settings	at +1	at +2	at +3	at +4	at -1	at -2	at -3	at -4	at -5
A fixed	0.898	1.02	1	1.11	1.24	2.02	0.811	1.17	1.13
D fixed	0.691	0.553	0.8	1.09	0.696	0.92	3.33	1.38	1.2
E fixed	1.21	0.343	0.994	0.958	1.01	1.44	3.21	1.74	1.17
F fixed	0.725	1.5	1.2	1.18	0.665	0.688	0.558	0.898	1.06
G fixed	0.869	0.952	1.76	1.1	1.08	1.04	0.749	1.11	1
H fixed	1.17	1.65	1.64	1.09	1.17	0.881	0.579	0.933	1.06
I fixed	1.59	1.27	0.695	0.869	0.671	0.81	0.625	0.754	0.829
K fixed	0.509	0.699	0.6	0.782	1.1	0.705	0.633	0.734	0.956
L fixed	1.12	0.726	0.754	0.865	0.76	0.837	0.581	0.677	0.969
M fixed	1.1	0.892	1.01	0.946	1.04	0.897	0.562	0.744	0.901
N fixed	1.15	0.742	0.776	0.737	1.24	1.09	0.831	0.915	0.824
P fixed	0.639	1.09	0.847	0.989	1.14	1.38	0.826	1.09	1.43
Q fixed	1.22	0.626	0.727	0.848	1.61	1.08	0.75	0.706	0.717
R fixed	0.59	0.632	0.552	0.628	1.04	0.824	0.746	0.74	0.768
V fixed	2.02	0.985	0.711	0.923	0.787	0.986	0.595	0.692	0.78
W fixed	0.738	1.59	1.38	1.46	0.898	0.635	0.628	1.67	1.16
Y fixed	0.771	1.73	1.55	1.44	0.839	0.763	0.987	1.04	1.04
pThr fixed	3.36	0.673	1.04	3.07	1.48	5.81	100	10.8	2.93
pTyr fixed	1.32	6.1	4.04	2.48	1.76	3.06	5.64	10.7	3.72

DCLK1, construct: aa351-689 (from UniProt O15075)
relative phosphorylation
Settings	at +1	at +2	at +3	at +4	at -1	at -2	at -3	at -4	at -5
A fixed	0.741	1.04	0.876	0.928	0.957	1.35	0.773	1.13	1.09
D fixed	0.495	0.579	0.771	0.814	0.62	0.651	0.307	0.553	0.468
E fixed	0.508	0.36	0.817	0.761	0.362	1.5	0.386	0.912	0.452
F fixed	2.44	1.04	0.991	1.34	0.427	0.582	0.281	0.617	1.08
G fixed	0.765	0.962	1.25	1.11	1.72	1.45	0.704	1.09	1.07
H fixed	1.01	1.39	1.38	0.944	1.33	1.12	0.979	1.15	1.01
I fixed	0.485	1.08	0.571	0.972	0.277	0.315	0.133	0.462	0.759
K fixed	1.1	0.523	1.27	1.23	2.27	1.5	3.37	2.12	1.56
L fixed	0.774	1.3	0.952	1.03	0.745	0.499	0.245	0.659	1.02
M fixed	1.53	1.48	0.66	1.26	0.797	1.06	0.415	0.947	0.938
N fixed	1.11	0.719	0.988	0.871	1.07	1.12	0.568	0.909	0.716
P fixed	0.274	0.63	0.789	1.17	1.37	0.383	0.821	1.08	1.16
Q fixed	1.13	0.626	1.16	0.925	0.958	1.75	0.771	1.04	0.907
R fixed	1.22	0.52	1.46	1.05	2.01	1.78	6.04	1.92	1.68
V fixed	0.705	1.23	0.79	0.889	0.529	0.464	0.244	0.665	0.886
W fixed	1.34	1.59	1.32	0.929	0.528	0.685	0.475	0.876	1.36
Y fixed	1.38	1.94	0.953	0.781	1.03	0.785	0.486	0.861	0.832
pThr fixed	0.78	0.776	0.779	1.2	0.322	0.357	0.407	0.688	0.712
pTyr fixed	1.01	2.9	0.913	0.688	0.585	0.497	0.391	0.683	0.813

DYRK1B, construct: Full length (from UniProt Q9Y463)
relative phosphorylation
Settings	at +1	at +2	at +3	at +4	at -1	at -2	at -3	at -4	at -5
A fixed	0.436	0.893	0.7	0.79	1.08	2.23	0.812	0.901	0.902
D fixed	0.147	0.891	0.762	0.879	0.607	0.261	0.56	1.58	0.658
E fixed	0.161	0.8	0.932	0.829	0.626	0.28	0.445	0.719	0.554
F fixed	0.182	1.26	1.04	1.68	0.605	0.346	0.407	0.645	0.816
G fixed	0.957	0.824	1	0.925	1.14	0.889	1.33	0.933	1.15
H fixed	0.249	1.16	1.37	1.11	0.926	0.456	0.748	0.837	1.23
I fixed	0.239	1.26	0.987	1.14	0.495	0.727	0.32	0.607	0.956
K fixed	0.469	0.653	0.621	0.808	1.6	0.623	0.983	1.22	1.5
L fixed	0.222	1.28	1.25	1.1	0.747	0.926	0.491	0.756	0.785
M fixed	0.71	1.06	1.22	1.32	1.04	0.729	0.513	0.718	0.721
N fixed	0.21	1.02	0.991	0.902	0.86	0.806	0.712	0.806	0.903
P fixed	11	0.972	2.32	0.904	1.66	2.48	1.04	1.01	0.988
Q fixed	0.265	0.893	0.88	0.9	1.12	0.584	0.73	0.824	0.851
R fixed	0.947	0.77	0.713	0.811	1.93	3.56	5.96	3.05	2.61
V fixed	0.448	1.24	0.706	0.854	0.672	0.944	0.373	0.544	0.599
W fixed	0.241	1.02	0.742	1.06	0.853	0.723	0.539	0.865	0.8
Y fixed	0.161	1.01	0.77	0.994	1.02	0.43	1.03	0.987	0.983
pThr fixed	0.476	1.01	0.551	0.927	0.454	0.594	0.577	0.891	0.802
pTyr fixed	0.537	0.813	0.705	0.961	0.76	0.433	0.559	0.672	0.849
